Reference: patent US20210347865A1 (STATEN BIOTECHNOLOGY B V, published 2021)
Where a chain is given by its changes, count along the chain named. Blank lines part the entries; values can stand above or below the binder they belong to.

Legend:
native human ApoC3 [1] = target: T1, native human ApoC3 (human, UniProt P02656 21-99, biotinylated in the captured-antigen assays (Tables 6 and 8); sites not stated); test: SPR, biotinylated antigen captured on SA chip, scFv periplasmic extract injected, pH 7.4
T1 construct: also called nhuApoC3; native huApoC3
T1 sequence (P02656 21-99): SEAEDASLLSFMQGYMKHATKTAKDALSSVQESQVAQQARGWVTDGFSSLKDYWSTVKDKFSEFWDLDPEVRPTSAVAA

[2] = target: T2, recombinant cynomolgus ApoC3 (cynomolgus monkey, UniProt P18659 21-99, biotinylated in the captured-antigen assays (Tables 6 and 8); sites not stated); test: as above
T2 construct: No cleavage site is stated, so none is applied; also called rcyApoC3; bio-rcyApoC3
T2 sequence (P18659 21-99 limits assumed): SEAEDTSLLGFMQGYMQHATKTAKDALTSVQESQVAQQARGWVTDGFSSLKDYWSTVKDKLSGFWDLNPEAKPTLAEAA

native human ApoC3 [3] = target: T1, native human ApoC3; test: SPR, IgG captured via anti-human Fc, ApoC3 analyte 100 nM
Procedure: (§1) Immobilization was performed in accordance with the method provided by Biacore in the NHS/EDC kit (Biacore AB). Briefly, after activation of the chip, a solution of 30 μg/ml anti-human Fcγ antibody in 10 mM acetate buffer with pH 5.0 was injected until the surface density reached approximately 10,000 RU. […] Following antibody capture, 100 μl of HBS-EP buffer was injected and passed through the flow cells at 30 μl/min. To bind target, 60 μl of 400 nM, 200 nM, 100 nM, or 50 nM ApoC3 protein in HBS-EP buffer was injected. An off-rate wash was performed by injection of HBS-EP buffer at 30 μl/min for 5 min. After dissociation, the flow cell surfaces were regenerated by injecting 20 μl of 10 mM glycine at pH 1.5.
(§2) The resulting sensorgrams were analysed with BIAevaluation 4.1 software using the Langmuir 1:1 binding model to derive binding kinetics. Data was zero adjusted and the reference cell sensorgrams were subtracted. A no-analyte blank assay was used for double referencing the sensorgrams corresponding to nhuApoC3 and rcyApoC3 injections. The dissociation and association phase sensorgrams were fitted separately for the 4 different concentration curves. Sensorgrams were excluded from the fitting if maximum RU values were below the limit of detection (i.e., <5 RU). SPR signals were too low to calculate kinetic parameters for […].

[4] = target: T2, recombinant cynomolgus ApoC3; test: as above
Procedure: as §1, §2

native human ApoC3 [5] = target: T1, native human ApoC3; test: SPR, IgG captured via anti-human Fc, ApoC3 analyte 200 nM
Procedure: as §1, §2

[6] = target: T2, recombinant cynomolgus ApoC3; test: as above
Procedure: as §1, §2

native human ApoC3 [7] = target: T1, native human ApoC3; test: SPR, antigen immobilized on CM5 chip, IgG as analyte, pH 7.4
[8] = target: T2, recombinant cynomolgus ApoC3; test: as above
native human ApoC3 [9] = target: T1, native human ApoC3; test: SPR, IgG captured via anti-human Fc, ApoC3 analyte 50 nM
Procedure: as §1, §2

native human ApoC3 [10] = target: T1, native human ApoC3; test: SPR, biotinylated antigen captured on streptavidin chip, IgG as analyte, pH 7.4
[11] = target: T2, recombinant cynomolgus ApoC3; test: as above
native human ApoC3 [12] = target: T1, native human ApoC3; test: SPR, IgG captured via anti-human Fc, ApoC3 analyte 400 nM
Procedure: as §1, §2

[13] = target: T2, recombinant cynomolgus ApoC3; test: as above
Procedure: as §1, §2

[14] = target: T2, recombinant cynomolgus ApoC3; test: SPR, antigen immobilized on CM5 chip, IgG as analyte, pH 7.4; antigen immobilized on chip, IgG as analyte (12.5-0.8 nM)
[15] = target: T2, recombinant cynomolgus ApoC3; test: SPR, biotinylated antigen captured on streptavidin chip, IgG as analyte, pH 7.4; biotinylated antigen captured on streptavidin chip, IgG as analyte

R0 (native human ApoC3 [1]): 930 RU
koff (native human ApoC3 [1]): 0.000572 s⁻¹
R0 [2]: 122 RU
koff [2]: 0.0418 s⁻¹
B1: 29B03 scFv (scFv, part only; not given: scFv linker, domain order, c-myc tag, V domains shown, not shown: another chain or arm of the molecule; small tags and cut ends)
VH: QLQLVESGGGLVQPGGSLRLSCAASGFTFGTYSMRWVRQVPRKALEWVSSISTDGGGTAYRDSVKGRFTISRDNAKNTLYLQMNNLKPEDTAIYYCVIAGYSDWGQGTQVTVSS
VL: DVVLTQTPGSLSVVPGESASISCKAGQNLVHPDGKTYLYWLLQKPGQSPQRLIYQVSNRDSGVPDRFTGSGSGTDFTLKISGVKVEDAGVYYCAQGTYWPKTFGQGTKLEIK

R0 (native human ApoC3 [1]): 854 RU
koff (native human ApoC3 [1]): 0.000964 s⁻¹
koff [2]: 0.0391 s⁻¹
B2: 5E5 WT scFv (scFv, part only; not given: scFv linker, domain order, c-myc tag, V domains shown, not shown: another chain or arm of the molecule; small tags and cut ends)
VH: B1 VH
VL: ATMLTQSPGSLSVVPGESASISCKTSQGLVHSDGKTYFYWFLQKPGQSPQQLIYQVSNRASGVPDRFTGSGSGTDFTLKISGVKAEDAGVYYCAQGTYYPHTFGSGTRLEIK

Kd (native human ApoC3 [3]): 6.42 nM
koff (native human ApoC3 [3]): 0.00132 s⁻¹
kon (native human ApoC3 [3]): 206000 M⁻¹ s⁻¹
Kd [4]: 296 nM
koff [4]: 0.00887 s⁻¹
kon [4]: 30000 M⁻¹ s⁻¹
Kd (native human ApoC3 [5]): 6.87 nM
koff (native human ApoC3 [5]): 0.00133 s⁻¹
kon (native human ApoC3 [5]): 194000 M⁻¹ s⁻¹
Kd [6]: 359 nM
koff [6]: 0.00875 s⁻¹
kon [6]: 24400 M⁻¹ s⁻¹
Kd (native human ApoC3 [7]): 0.16 nM
koff (native human ApoC3 [7]): 8.2e-05 s⁻¹
kon (native human ApoC3 [7]): 520000 M⁻¹ s⁻¹
Kd [8]: 0.21 nM
koff [8]: 6.4e-05 s⁻¹
kon [8]: 310000 M⁻¹ s⁻¹
Kd (native human ApoC3 [9]): 6.01 nM
koff (native human ApoC3 [9]): 0.00126 s⁻¹
kon (native human ApoC3 [9]): 210000 M⁻¹ s⁻¹
Kd (native human ApoC3 [10]): 0.13 nM
koff (native human ApoC3 [10]): 6.3e-05 s⁻¹
kon (native human ApoC3 [10]): 500000 M⁻¹ s⁻¹
Kd [11]: 0.65 nM
koff [11]: 0.000175 s⁻¹
kon [11]: 270000 M⁻¹ s⁻¹
Kd (native human ApoC3 [12]): 7.36 nM
koff (native human ApoC3 [12]): 0.00133 s⁻¹
kon (native human ApoC3 [12]): 181000 M⁻¹ s⁻¹
Kd [13]: 365 nM
koff [13]: 0.00983 s⁻¹
kon [13]: 26900 M⁻¹ s⁻¹
B3: 29A05 IgG (antibody, V domains shown)
VH: B1 VH
VL: B1 VL with G26S, N28S, H31Y, P32S

R0 (native human ApoC3 [1]): 809 RU
koff (native human ApoC3 [1]): 0.00633 s⁻¹
R0 [2]: 92.7 RU
koff [2]: 0.00714 s⁻¹
B4: 29G11 scFv (scFv, part only; not given: scFv linker, domain order, c-myc tag, V domains shown, not shown: another chain or arm of the molecule; small tags and cut ends)
VH: B1 VH
VL: DVVLTQTPGSLSVVPGGSASISCKASQSLVYSDGKTYLYWLRQKPGQSPQRLIYQVSNRPSGVPDRFTGSGSGTDFTLKISGVKAEDAGVYYCAQDTYSTKTFGQGTKLEIK

R0 (native human ApoC3 [1]): 695 RU
koff (native human ApoC3 [1]): 0.00123 s⁻¹
koff [2]: 0.0436 s⁻¹
B5: 30D10 scFv (scFv, part only; not given: scFv linker, domain order, c-myc tag, V domains shown, not shown: another chain or arm of the molecule; small tags and cut ends)
VH: B1 VH
VL: DVVLTQTPGSLSVVPGESASISCTASQSLRHSDGRTYLYWLRQKPGQSPQRLIKRVSTRDPGVPDRFTGSGSGTDFTLKISGVRAEDAGVYYCAQGTYYPLTFGQGTKVELK

Kd (native human ApoC3 [7]): 0.15 nM
koff (native human ApoC3 [7]): 0.000231 s⁻¹
kon (native human ApoC3 [7]): 1.5e+06 M⁻¹ s⁻¹
binding result [8]: no binding
Kd (native human ApoC3 [10]): 0.1 nM
koff (native human ApoC3 [10]): 0.000126 s⁻¹
kon (native human ApoC3 [10]): 1.29e+06 M⁻¹ s⁻¹
B6: 30D10 IgG (antibody, V domains shown)
VH: B1 VH
VL: B5 VL

R0 (native human ApoC3 [1]): 808 RU
koff (native human ApoC3 [1]): 0.00144 s⁻¹
R0 [2]: 52 RU
koff [2]: 0.059 s⁻¹
B7: 29F10 scFv (scFv, part only; not given: scFv linker, domain order, c-myc tag, V domains shown, not shown: another chain or arm of the molecule; large carriers; small tags and cut ends)
VH: B1 VH
VL: B1 VL with S18P, I21V, G26S, N28S, D60G, K79E, V85A

R0 (native human ApoC3 [1]): 1010 RU
koff (native human ApoC3 [1]): 0.00162 s⁻¹
R0 [2]: 125 RU
koff [2]: 0.0406 s⁻¹
B8: 29A06 scFv (scFv, part only; not given: scFv linker, domain order, c-myc tag, V domains shown, not shown: another chain or arm of the molecule; small tags and cut ends)
VH: B1 VH
VL: B1 VL with G26S, P32S, D33N, D60G, G62E, V85A

R0 (native human ApoC3 [1]): 833 RU
koff (native human ApoC3 [1]): 0.00435 s⁻¹
R0 [2]: 102 RU
koff [2]: 0.00721 s⁻¹
B9: 29G02 scFv (scFv, part only; not given: scFv linker, domain order, c-myc tag, V domains shown, not shown: another chain or arm of the molecule; small tags and cut ends)
VH: B1 VH
VL: B4 VL with G17E, S26T, Y31H, S32I, R42L, N58T, P60D, S70A, T74A, D75E

R0 (native human ApoC3 [1]): 545 RU
koff (native human ApoC3 [1]): 0.0069 s⁻¹
R0 [2]: 145 RU
koff [2]: 0.0146 s⁻¹
B10: 29A05 scFv (scFv, part only; not given: scFv linker, domain order, c-myc tag, V domains shown, not shown: another chain or arm of the molecule; small tags and cut ends)
VH: B1 VH
VL: B1 VL with G26S, N28S, H31Y, P32S

Kd (native human ApoC3 [3]): 2.52 nM
koff (native human ApoC3 [3]): 0.000758 s⁻¹
kon (native human ApoC3 [3]): 301000 M⁻¹ s⁻¹
Kd (native human ApoC3 [5]): 2.57 nM
koff (native human ApoC3 [5]): 0.000733 s⁻¹
kon (native human ApoC3 [5]): 286000 M⁻¹ s⁻¹
Kd (native human ApoC3 [7]): 0.01 nM
koff (native human ApoC3 [7]): 1.6e-05 s⁻¹
kon (native human ApoC3 [7]): 1.32e+06 M⁻¹ s⁻¹
Kd (native human ApoC3 [9]): 2.31 nM
koff (native human ApoC3 [9]): 0.000718 s⁻¹
kon (native human ApoC3 [9]): 311000 M⁻¹ s⁻¹
Kd (native human ApoC3 [10]): 0.02 nM
koff (native human ApoC3 [10]): 3.3e-05 s⁻¹
kon (native human ApoC3 [10]): 1.31e+06 M⁻¹ s⁻¹
Kd [11]: 0.37 nM
Kd [14]: 0.5 nM
koff [14]: 0.000552 s⁻¹
kon [14]: 1.11e+06 M⁻¹ s⁻¹
koff [15]: 0.000275 s⁻¹
kon [15]: 750000 M⁻¹ s⁻¹
Kd (native human ApoC3 [12]): 3.04 nM
koff (native human ApoC3 [12]): 0.000752 s⁻¹
kon (native human ApoC3 [12]): 247000 M⁻¹ s⁻¹
B11: 29G02 IgG (antibody, V domains shown)
VH: B1 VH
VL: B4 VL with G17E, S26T, Y31H, S32I, R42L, N58T, P60D, S70A, T74A, D75E

Kd (native human ApoC3 [3]): 0.814 nM
koff (native human ApoC3 [3]): 0.000317 s⁻¹
kon (native human ApoC3 [3]): 390000 M⁻¹ s⁻¹
Kd (native human ApoC3 [5]): 0.91 nM
koff (native human ApoC3 [5]): 0.00032 s⁻¹
kon (native human ApoC3 [5]): 351000 M⁻¹ s⁻¹
Kd (native human ApoC3 [7]): 0.07 nM
koff (native human ApoC3 [7]): 6.5e-05 s⁻¹
kon (native human ApoC3 [7]): 950000 M⁻¹ s⁻¹
Kd [8]: 0.15 nM
koff [8]: 7.5e-05 s⁻¹
kon [8]: 500000 M⁻¹ s⁻¹
Kd (native human ApoC3 [9]): 0.755 nM
koff (native human ApoC3 [9]): 0.000314 s⁻¹
kon (native human ApoC3 [9]): 416000 M⁻¹ s⁻¹
Kd (native human ApoC3 [10]): 0.04 nM
koff (native human ApoC3 [10]): 4.2e-05 s⁻¹
kon (native human ApoC3 [10]): 960000 M⁻¹ s⁻¹
Kd [11]: 0.46 nM
koff [11]: 0.000169 s⁻¹
kon [11]: 370000 M⁻¹ s⁻¹
Kd (native human ApoC3 [12]): 0.973 nM
koff (native human ApoC3 [12]): 0.000327 s⁻¹
kon (native human ApoC3 [12]): 336000 M⁻¹ s⁻¹
Kd [13]: 919 nM
koff [13]: 0.0207 s⁻¹
kon [13]: 22500 M⁻¹ s⁻¹
B12: 29A06 IgG (antibody, V domains shown)
VH: B1 VH
VL: B1 VL with G26S, P32S, D33N, D60G, G62E, V85A
